How the values were obtained:
[1] = molecular target: factor D purified from human serum (human) (UniProt P00746); assay: SPR (BIAcore), MAb captured by rabbit anti-mouse IgG, factor D as analyte
[2] = molecular target: dog factor D (in dog serum) (dog); assay: cell-based or functional assay; conditions: scale: times less effective than on human factor D
[3] = molecular target: factor D purified from human serum (human) (UniProt P00746); assay: cell-based or functional assay
[4] = molecular target: factor D purified from human serum (human) (UniProt P00746); assay: SPR (BIAcore), factor D amine-coupled to the chip, MAb 166-32 as analyte

Chain of UniProt P00746 (P00746 26-253 N180D): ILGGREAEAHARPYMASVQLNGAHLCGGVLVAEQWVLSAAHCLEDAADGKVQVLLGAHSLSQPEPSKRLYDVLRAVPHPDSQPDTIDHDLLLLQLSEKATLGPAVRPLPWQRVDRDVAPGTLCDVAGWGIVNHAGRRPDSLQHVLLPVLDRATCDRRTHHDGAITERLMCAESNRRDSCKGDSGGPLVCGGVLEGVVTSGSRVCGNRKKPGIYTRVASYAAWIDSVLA

Substance: MAb 166-32 (antibody)
- Kd [1]: < 0.1 nM
- koff [1]: 0.00011 s⁻¹
- kon [1]: > 1e+06 M⁻¹ s⁻¹
- neutralization of factor D in hemolytic assays [2]: > 10
- alternative complement activity of plasma from extracorporeal circuits (hemolysis of rabbit red blood cells) (molar ratio (MAb: factor D)) [3]: 1.5
- factor D dependent hemolysis of unsensitized rabbit RBCs (factor D depleted human serum with purified factor D added) [3]: 0.3 µg/mL
- factor D dependent hemolysis of unsensitized rabbit RBCs: molar ratio for inhibition (molar ratio (MAb 166-32 to factor D)) [3]: 0.5
- Kd [4]: 0.16 nM
- koff [4]: 7.6e-05 s⁻¹
- kon [4]: 460000 M⁻¹ s⁻¹

— patent US20050232920A1
